According to publication PMC8277574 (2021):

B2: mouse MUSK Fz domain and C-terminal flanking sequence (D307 to T494), Avi-His6, biotinylated (domain or fragment)
chain: DSQGYCAQYRGEVCDAVLAKDALVFFNTSYRDPEDAQELLIHTAWNELKAVSPLCRPAAEALLCNHLFQECSPGVVPTPMPICREYCLAVKELFCAKEWQAMEGKAHRGLYRSGMHLLPVPECSKLPSMHRDPTACTRLPYLDYKKENITTFPSITSSRPSADIPNLPASTSSFAVSPAYSMT
modifications: biotin (on the Avi tag, BirA in vitro)
B3: mouse MUSK full-length extracellular region (E22 to T494), Avi-His6, biotinylated (domain or fragment)
chain: EKLPKAPVITTPLETVDALVEEVATFMCAVESYPQPEISWTRNKILIKLFDTRYSIRENGQLLTILSVEDSDDGIYCCIANNGVGGAVESCGALQVKMKPKITRPPINVKIIEGLKAVLPCTTMGNPKPSVSWIKGDNALRENSRIAVLESGSLRIHNVQKEDAGQYRCVAKNSLGTAYSKLVKLEVEVFARILRAPESHNVTFGSFVTLRCTAIGIPVPTISWIENGNAVSSGSIQESVKDRVIDSRLQLFITKPGLYTCIATNKHGEKFSTAKAAATVSIAEWSKSQKDSQGYCAQYRGEVCDAVLAKDALVFFNTSYRDPEDAQELLIHTAWNELKAVSPLCRPAAEALLCNHLFQECSPGVVPTPMPICREYCLAVKELFCAKEWQAMEGKAHRGLYRSGMHLLPVPECSKLPSMHRDPTACTRLPYLDYKKENITTFPSITSSRPSADIPNLPASTSSFAVSPAYSMT
modifications: biotin (on the Avi tag, BirA in vitro)
B4: human MUSK full-length extracellular region (E22 to T495), Avi-His6, biotinylated (domain or fragment)
chain: EKLPKAPVITTPLETVDALVEEVATFMCAVESYPQPEISWTRNKILIKLFDTRYSIRENGQLLTILSVEDSDDGIYCCTANNGVGGAVESCGALQVKMKPKITRPPINVKIIEGLKAVLPCTTMGNPKPSVSWIKGDSPLRENSRIAVLESGSLRIHNVQKEDAGQYRCVAKNSLGTAYSKVVKLEVEVFARILRAPESHNVTFGSFVTLHCTATGIPVPTITWIENGNAVSSGSIQESVKDRVIDSRLQLFITKPGLYTCIATNKHGEKFSTAKAAATISIAEWSKPQKDNKGYCAQYRGEVCNAVLAKDALVFLNTSYADPEEAQELLVHTAWNELKVVSPVCRPAAEALLCNHIFQECSPGVVPTPIPICREYCLAVKELFCAKEWLVMEEKTHRGLYRSEMHLLSVPECSKLPSMHWDPTACARLPHLDYNKENLKTFPPMTSSKPSVDIPNLPSSSSSSFSVSPTYSMT
modifications: biotin (on the Avi tag, BirA in vitro)
B5: human MUSK Fz domain and C-terminal flanking sequence (K314 to T495), Avi-His6, biotinylated (domain or fragment)
chain: KGYCAQYRGEVCNAVLAKDALVFLNTSYADPEEAQELLVHTAWNELKVVSPVCRPAAEALLCNHIFQECSPGVVPTPIPICREYCLAVKELFCAKEWLVMEEKTHRGLYRSEMHLLSVPECSKLPSMHWDPTACARLPHLDYNKENLKTFPPMTSSKPSVDIPNLPSSSSSSFSVSPTYSMT
modifications: biotin (on the Avi tag, BirA in vitro)

Key:
Test in all cases: FACS
[1] = biological target: B2
[2] = biological target: B4
[3] = biological target: B5
[4] = biological target: B3
X17 hIgG = biological target: X17 hIgG
X3 mIgG = biological target: X3 mIgG
X2 hIgG = biological target: X2 hIgG
X3 hIgG = biological target: X3 hIgG

B1: MUSK agonist antibody X17, mouse IgG2a-LALAPG format (antibody, V domains shown)
VH: EVQLVESGGGLVQPGGSLRLSCAASGFTISYSSIHWVRQAPGKGLEWVASIYSSSGSTYYADSVKGRFTISADTSKNTAYLQMNSLRAEDTAVYYCARGDHGYYVFGYLGMDYWGQGTLVTVSS
VL: DIQMTQSPSSLSASVGDRVTITCRASQSVSSAVAWYQQKPGKAPKLLIYSASSLYSGVPSRFSGSRSGTDFTLTISSLQPEDFATYYCQQSYKPGALITFGQGTKVEIK
Kd [1]: 0.74 nM | Kd [2]: 0.97 nM | Kd [3]: 0.61 nM | Kd [4]: 1.1 nM

B2
Kd (X17 hIgG): 0.68 nM | Kd (X3 mIgG): 0.096 nM | Kd (X2 hIgG): 0.265 nM | Kd (X3 hIgG): 0.07 nM

B3
Kd (X17 hIgG): 1.04 nM | Kd (X3 mIgG): 0.118 nM | Kd (X2 hIgG): 0.307 nM | Kd (X3 hIgG): 0.079 nM

B4
Kd (X17 hIgG): 0.86 nM | Kd (X3 mIgG): 0.113 nM | Kd (X2 hIgG): 0.478 nM | Kd (X3 hIgG): 0.074 nM

B5
Kd (X17 hIgG): 0.56 nM | Kd (X3 mIgG): 0.079 nM | Kd (X2 hIgG): 0.421 nM | Kd (X3 hIgG): 0.057 nM
